According to patent publication US12637513B2, “Method of treating cancer by administering an inhibitor of erythropoietin receptor activity comprising either erythropoietin receptor or erythropoietin protein” (ImmunEdge, Inc., priority 2022, dated 2026):

T1: EPO/EPOR interaction (EPOR-CD131-Fc and EPO) (Homo sapiens, UniProt P19235+P32927)
T1 construct: Chimeric Fc fusion proteins of the extracellular domains of human EPOR and human CD131; purchased Sino Biological CT010-H02H
T1 sequence (P19235 25-250 limits assumed): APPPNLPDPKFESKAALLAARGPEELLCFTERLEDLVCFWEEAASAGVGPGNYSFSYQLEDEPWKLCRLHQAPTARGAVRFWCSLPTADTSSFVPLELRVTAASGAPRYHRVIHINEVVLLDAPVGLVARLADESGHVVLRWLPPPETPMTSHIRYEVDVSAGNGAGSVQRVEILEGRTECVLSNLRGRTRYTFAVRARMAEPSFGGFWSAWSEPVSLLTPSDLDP
T1 sequence (P32927 17-443 limits assumed): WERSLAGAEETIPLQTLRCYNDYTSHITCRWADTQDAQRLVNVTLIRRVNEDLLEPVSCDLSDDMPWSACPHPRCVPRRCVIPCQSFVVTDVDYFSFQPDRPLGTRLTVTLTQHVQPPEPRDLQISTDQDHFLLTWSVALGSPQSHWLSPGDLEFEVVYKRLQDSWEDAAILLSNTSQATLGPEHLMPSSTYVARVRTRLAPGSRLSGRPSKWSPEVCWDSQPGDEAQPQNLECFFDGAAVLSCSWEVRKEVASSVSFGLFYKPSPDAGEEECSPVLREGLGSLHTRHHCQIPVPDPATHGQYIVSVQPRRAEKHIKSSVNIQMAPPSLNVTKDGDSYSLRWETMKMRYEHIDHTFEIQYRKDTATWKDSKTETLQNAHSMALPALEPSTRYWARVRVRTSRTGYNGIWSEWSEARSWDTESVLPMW


Target: T1, EPO/EPOR interaction (EPOR-CD131-Fc and EPO)
Assay: Octet blocking of the EPO/EPOR interaction by hybridoma supernatants
Assay type: binding
Settings: EPO 10 nM

Row | Molecule | blocking of the EPO/EPOR interaction
1 | EPORab - M37: hybridoma antibody clone, VH/VK in Table 10 (antibody, V domains shown) VH: QVQLQESGPGLVKPSGTLSLTCAVSGGSITTNNWWSWVRQSPGKGLEWIGEIYHSGNTNYNPSLKSRVTMSVDKSKNQFSLNLNSVIVADTAVYYCASALGTYYGAFDTWGQGTMVTVSA VL: DIQMTQSPSSLSASVGDRVTITCRASQSISNYLNWYQQKPGKAPKLLIYAASSLQSGVPSRFSGSGSGTDFTLTISSLQPEDFTTYYCQQSYGTPYTFGQGAKLQIK | did not block
2 | EPORab - M43: hybridoma antibody clone, VH/VK in Table 10 (antibody, V domains shown) VH: QVQLQESGPGLVKPSGTLSLTCAVSGGSISSSNWWSWVRQPPGKGLEWIGEIYHSGSINYNPSLKSRVTISVDKSKNQFSLKLTSVTAADTAVYYCASALGNYYGAFDLWGQGTMVTVSS VL: DIVMTQSPSSLSASVGDRVTITCRASQTISSYLNWYQQKPGKAPKLLICAASSLQGGVPSRFSGSGSGTDFTLTISSLQPEDFAPYYCQQSYSTPYTFGQGTKLEIK | did not block
3 | EPORab - M52: hybridoma antibody clone, VH/VK in Table 10 (antibody, V domains shown) VH: QLQLQESGPGLAKPSETLSLTCTVSGVSISSNSYYWGWIRQPPGKGLEWIGNIYHSGRTYYNPSLRSRVTISVDTSKNQFSLKLNSVTAADTAVYYCARGYSYGAFDYWGQGTLVTVSS VL: DIQMTQSPSSLSASVGDRVTITCRASQGIRNDLGWYQQKPGKAPKRLIYAASSLQSGIPSRFSGSGSGTEFTLTISSLQPEDFATYYCLQHNNYPWTFGQGTKVEIK | partial blocking
4 | EPORab - M19: hybridoma antibody clone, VH/VK in Table 10 (antibody, V domains shown) VH: QLQLQESGPGLVKPSETLSLTCTVSGGSISSSNHYWGWIRQPPGKGLEWIGTLYYSGSTYYEPSLKSRVTISVDTSMNQFSLNLSSVTATDTAVYNCARGDRYGPFDYWGQGTLVTVSS VL: DIVMTQSPSSLSASVGDRVTITCRASQGIRDDLGWYQQKPEKAPKRLICAASSLQSGVPSRFSGSGSGTEFTLTISSLQPEDFATYYCLQYNRYPWTFGQGTKVEIK | partial blocking
5 | EPORab - M24: hybridoma antibody clone, VH/VK in Table 10 (antibody, V domains shown) VH: EVQLVESGGGLVKPGGSLRLSCAASGFTFTNAWMNWVRQAPGKGLEWIGRIKSKTAGETTDYAAPVKGRFTISRDDSKNTLYLQMNSLKTEDTAVYYCTTDPDYGDPYYYYYFMDVWGKGTTVTVSS VL: DIQMTQSPSSLSASIGDRVTISCRASQSISSYLNWYQQKPGKAPKLLIYGASSLQSGVPSRFSGSGSGTDFTLTISSLQPEDFATYYCQQSYSLPLTFGGGTKVEIK | partial blocking

Second part, the molecule after the results:

Row | blocking of the EPO/EPOR interaction | Molecule
6 | partial blocking | EPORab - M54: hybridoma antibody clone, VH/VK in Table 10 (antibody, V domains shown) VH: QLQLQESGPGLVKPSETLSLTCSVSGGSISSSGYYWGWIRQPPGKGLDWIGTIYYSGNTNYNPSLNSRVTISVDTSRNQFSLKLRSVTAADTAVYYCARGYSYGPFDYWGQGTLVTVSS VL: EIVMTQSPATLSVSPGERATLSCRASQSVSSNLAWYQLKPGQAPRLLIYGASTRATGIPARFSGSGSGTEFTLTISSLQSEDFAVYYCHPYNNWPLTFGGGTKVEIK
7 | did not block | EPORab - M71: hybridoma antibody clone, VH/VK in Table 10 (antibody, V domains shown) VH: QVQLVESGAEVKKPRASVKVSCKTSGYTFTRHYMHWVRQAPGQGLEWMGIINPNNNSTSYAQKFQGRITMTRDTSTSTVYMELSSLRSEDTAVYYCARFRIVGTTLYFDYWGQGTLVTVSS VL: EIVMTQSPATLSVSPGERATLSCRASQSVSSNLAWYQLKPGQAPRLLIYGASTRATGIPARFSGSGSGTEFTLTISSLQSEDFAVYYCHPYNNWPLTFGGGTKVEIK
